The target of this assay is Fc gamma receptor (FcγR). The assay can be described thus: cell-based or functional assay.

Obinutuzumab (antibody) yielded a mean fold difference in CD107a on CD3-CD56+ NK cells against samples without mAbs, RA of 3.1 fold and a mean fold difference in CD107a on CD3-CD56+ NK cells against samples without mAbs, SLE of 1.8 fold.
The corresponding values for “non-glycoengineered, wild type glycosylated OBZ (antibody)” are 1.9 fold and 1.4 fold.
For rituximab (antibody) the same measures were 1.2 fold and 1.5 fold.
